Measurements published in patent US20230090114A1, “METHODS FOR PROMOTING WEIGHT LOSS” (89BIO LTD., priority 2020, published 2023).

Key:
[1] = Total spontaneous activity and rearing (METABOpack sessions); format: in vivo, CD-1 mice; details: T2; WD; 0.3 and 3 mg/kg; vs Liraglutide
Description: Horizontal spontaneous activity and rearing behavior were recorded every second by the Physiocage System. The analysis was performed by plotting data every 30 minutes in order to obtain the kinetic of the behaviors. For each mouse, the sums of the activity and rearing events were calculated for each nycthemeral phase (Diurnal period or DP; Nocturnal period or NP and Whole Day or WD). The means per nycthemeral phase were then calculated for each group for statistical comparisons.

[2] = Diet-induced NASH model in mice; format: in vivo; details: 0.3 mg/kg, 3 times/week
[3] = Water intake (METABOpack sessions); format: in vivo, CD-1 mice;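 on cumulative water intake: water intake recorded in mL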
From the text: During the METABOpack™ sessions, animals were housed singly in the Physiocage System (Panlab/Harvard apparatus), which was composed of: • 8 physiocages (LE1301) • 8 Air tight lids for mouse (LE1303) • 8 grid floors for mouse (LE1317) • 8 Feeding bottles for mouse (LE1306) • 2 Air supply and switching units for up to 4 home cages each (LE4004FL) • 1 O2/CO2 analyzer (LE405) • 1 acquisition software suite, METABOLISM (V3.0).
In the present project, a METABOpack™ session was consisted of a 12-hour period of acclimation followed by a 48-hour period of recording of the respiratory exchanges, FI, water intake (WI) and locomotor activity of each animal.
Following this acclimation period, the parameters cited above were automatically and simultaneously recorded for 48 hours, except for body weight that was measured manually every day.
The METABOpack™ sessions were conducted at the start (T1-2), the middle (T14-15) and the end (T26-27) of the treatment period.

[4] = Indirect calorimetry: VO2, VCO2, EE, RER (METABOpack sessions); format: in vivo, CD-1 mice
Description: The Physiocage System allows recording the O2 consumption (VO2) and the CO2 production (VCO2) by indirect calorimetry. For each animal, both VO2 and VCO2 were recorded for 3 min every 30 minutes and the mean values were calculated by the system.
Energy Expenditure (EE) and Respiratory Exchange Ratio (RER) were calculated with formulas that are based on VO2 and VCO2 values: […]
Analysis of these parameters was performed as follows: for each mouse, the mean values were calculated from the corresponding recordings for each nycthemeral phase (Diurnal Phase or DP, Nocturnal Phase or NP and Whole day or WD). The means per nycthemeral phase were then calculated for each group for statistical comparisons.

[5] = T1, NP and WD, whatever the dose, vs Liraglutide
[6] = T2, between the three 89BIO-100 groups
[7] = T1, whatever the dose, vs vehicle
[8] = T2, DP and WD, whatever the dose, vs Liraglutide
[9] = T2, whatever the dose, vs vehicle
[10] = T14, DP, 3 mg/kg, vs Liraglutide
[11] = T14, NP and WD, whatever the dose, vs Liraglutide
[12] = T14, NP and WD, whatever the dose, vs vehicle
[13] = T14, between the three 89BIO-100 groups
[14] = T15, NP and WD, 1 and 3 mg/kg, vs vehicle
[15] = T15, between the three 89BIO-100 groups
[16] = T15, whatever the phase, 1 and 3 mg/kg, vs Liraglutide
[17] = T27, NP, whatever the dose, vs vehicle
[18] = T27, WD, 0.3 and 1 mg/kg, vs Liraglutide
[19] = T27, WD, 0.3 and 1 mg/kg, vs vehicle
[20] = T27, between the three 89BIO-100 groups

B1: Mutant FGF21-GalNAc-SA-PEG-20 kDa (conjugate)
chain: MHPIPDSSPLLQFGGQVRQRYLYTDDAQQTEAHLEIREDGTVGGAADQSPESLLQLKALKPGVIQILGVKTSRFLCQRPDGALYGSLHFDPEACSFRELLLEDGYNVYQSEAHGLPLHLPGNKSPHRDPAPRGPARFLPLPGLPPALPEPPGILAPQPPDVGSSDPLSMVGPTQGASPSYAS
total spontaneous activity [1]: higher total spontaneous activity
efficacy in Diet-induced NASH model [2]: effective
mean water intake ([3]; T1, DP, 3 mg/kg, vs 0.3 and 1 mg/kg): decreased
mean water intake ([3]; T1, DP, 0.3 and 1 mg/kg, vs Liraglutide): increased
mean water intake [3, 5]: increase in mean water intake
mean water intake ([3]; T1, three doses, vs vehicle): no significant difference
cumulative water intake ([3]; T2, 0.3 mg/kg, vs Liraglutide, 5-24 h): increased
cumulative water intake ([3]; T2, 0.3 mg/kg, vs vehicle, at 5, 6, 7, 9, 10 h and 12-24 h): increased
cumulative water intake ([3]; T2, 1 mg/kg, vs Liraglutide, 4-24 h): increased
cumulative water intake ([3]; T2, 1 mg/kg, vs vehicle, 4-24 h): increased
cumulative water intake ([3]; T2, 3 mg/kg, vs Liraglutide, 2-24 h): increased
cumulative water intake ([3]; T2, 3 mg/kg, vs vehicle, 2-24 h): increased
mean water intake ([3]; T2, NP, 0.3 and 1 mg/kg, vs vehicle): increased
mean water intake ([3]; T2, WD, whatever the dose, vs vehicle): increased
cumulative water intake [3, 6]: no significant difference
mean water intake ([3]; T2, whatever the phase, whatever the dose, vs Liraglutide): increase in mean water intake
cumulative water intake ([3]; T14, 1 mg/kg, vs 0.3 mg/kg, at 2 h and 7-24 h): increased
cumulative water intake ([3]; T14, 3 mg/kg, vs 0.3 mg/kg, 3-24 h): increased
cumulative water intake ([3]; T14, 1 and 3 mg/kg, vs Liraglutide, 2-24 h): increased
cumulative water intake ([3]; T14, 1 and 3 mg/kg, vs vehicle, 2-24 h): increased
mean water intake ([3]; T14, NP, 1 and 3 mg/kg, vs 0.3 mg/kg): increased
mean water intake ([3]; T14, WD, 3 mg/kg, vs 0.3 mg/kg): increased
mean water intake ([3]; T14, whatever the phase, 1 and 3 mg/kg, vs Liraglutide): increase in mean water intake
mean water intake ([3]; T14, whatever the phase, 1 and 3 mg/kg, vs vehicle): increased
cumulative water intake ([3]; T15, 1 mg/kg, vs 0.3 mg/kg, 2-24 h): increased
cumulative water intake ([3]; T15, 3 mg/kg, vs 0.3 mg/kg, 1-15 h): increased
cumulative water intake ([3]; T15, 1 and 3 mg/kg, vs Liraglutide, over 24 h): increased
cumulative water intake ([3]; T15, 1 and 3 mg/kg, vs vehicle, over 24 h): increased
cumulative water intake ([3]; T26, 1 mg/kg, vs Liraglutide, at 3 h, 4 h and 6-21 h): increased
cumulative water intake ([3]; T26, 1 mg/kg, vs vehicle, only at 3 h and 4 h): increased
cumulative water intake ([3]; T26, 3 mg/kg, vs 0.3 mg/kg, 5-16 h): increased
cumulative water intake ([3]; T26, 3 mg/kg, vs Liraglutide, 3-24 h): increased
cumulative water intake ([3]; T26, 3 mg/kg, vs vehicle, 3-24 h): increased
mean water intake ([3]; T26, NP and WD, 3 mg/kg, vs vehicle): increased
mean water intake ([3]; T26, NP, 3 mg/kg, vs 0.3 mg/kg): increased
mean water intake ([3]; T26, NP, 1 and 3 mg/kg, vs Liraglutide): increase in mean water intake
mean water intake ([3]; T26, WD, 3 mg/kg, vs Liraglutide): increase in mean water intake
cumulative water intake ([3]; T27, 1 mg/kg, vs vehicle, 2-5 h): increased
cumulative water intake ([3]; T27, 3 mg/kg, vs 0.3 mg/kg, at 1 h and 3-8 h): increased
cumulative water intake ([3]; T27, 3 mg/kg, vs 1 mg/kg, at 3 h, 4 h, 5 h and 7 h): increased
cumulative water intake ([3]; T27, 3 mg/kg, vs Liraglutide, over 24 h): increased
cumulative water intake ([3]; T27, 3 mg/kg, vs vehicle, over 24 h): increased
mean water intake ([3]; T27, NP and WD, 3 mg/kg, vs vehicle and Liraglutide groups): increased
mean water intake ([3]; section On T15 (text prints T14), NP and WD, 1 and 3 mg/kg, vs vehicle): increased
mean water intake ([3]; section On T15, NP and WD, 1 and 3 mg/kg, vs Liraglutide): increase in mean water intake
mean water intake ([3]; section On T15, NP, 1 and 3 mg/kg, vs 0.3 mg/kg): increased
mean water intake ([3]; section On T15, WD, 1 mg/kg, vs 0.3 mg/kg): increased
RER [4, 5]: increase in RER
VCO2 ([4]; T1, NP, whatever the dose, vs Liraglutide): increase in VCO2
RER ([4]; T1, between 89BIO-100 groups): no significant difference
VCO2 ([4]; T1, between all 89BIO-100 groups): no significant difference
RER [4, 7]: No significant difference
VCO2 [4, 7]: No significant difference
EE [4, 8]: increase in EE
VO2 [4, 8]: increase in VO2
EE ([4]; T2, between 89BIO-100 groups): no significant difference
VO2 [4, 6]: no significant difference
EE [4, 9]: No significant difference
VO2 [4, 9]: No significant difference
EE [4, 10]: increased
VO2 [4, 10]: increased
EE ([4]; T14, DP, 3 mg/kg, vs vehicle): increased
VO2 ([4]; T14, DP, 3 mg/kg, vs vehicle): increased
EE [4, 11]: increase in EE
RER [4, 11]: decrease in RER
VO2 [4, 11]: increase in VO2
EE [4, 12]: increased
VO2 [4, 12]: increased
VCO2 ([4]; T14, NP, whatever the dose, vs Liraglutide): increase in VCO2
VCO2 ([4]; T14, NP, whatever the dose, vs vehicle): increased
VCO2 ([4]; T14, WD, 1 and 3 mg/kg, vs Liraglutide): increased
VCO2 ([4]; T14, WD, 1 and 3 mg/kg, vs vehicle): increased
EE [4, 13]: no significant difference
VCO2 [4, 13]: no significant difference
VO2 [4, 13]: no significant difference
RER ([4]; T14, whatever the dose, vs vehicle): No significant difference
EE ([4]; T15, DP, 1 mg/kg, vs vehicle): increased
VCO2 ([4]; T15, DP, 1 mg/kg, vs vehicle): increased
VO2 ([4]; T15, DP, 1 mg/kg, vs vehicle): increased
EE [4, 14]: increased
VCO2 [4, 14]: increased
VO2 [4, 14]: increased
EE [4, 15]: no significant difference
VCO2 [4, 15]: no significant difference
VO2 [4, 15]: no significant difference
EE [4, 16]: increase in EE
VCO2 [4, 16]: increase in VCO2
VO2 [4, 16]: increase in VO2
VCO2 ([4]; T27, NP and WD, 0.3 and 1 mg/kg, vs vehicle): increased
VCO2 ([4]; T27, NP and WD, dose of 1, vs Liraglutide): increase in VCO2
VO2 ([4]; T27, NP, 1 and 3 mg/kg, vs Liraglutide): increase in VO2
EE ([4]; T27, NP, dose of 1, vs Liraglutide): increase in EE
EE [4, 17]: increased
VO2 [4, 17]: increased
EE [4, 18]: increased
VO2 [4, 18]: increase in VO2
EE [4, 19]: increased
VO2 [4, 19]: increased
EE [4, 20]: no significant difference
VCO2 [4, 20]: no significant difference
VO2 [4, 20]: no significant difference
thermogenesis ([4]; concluded from energy expenditure effects): increased
energy expenditure ([4]; summary, second (T14/T15) and third (T27) METABOpack session, vs Vehicle): increase in energy expenditure
